B1: BT3057^4S-Gal/GalNAc (enzyme, Bacteroides thetaiotaomicron, UniProt Q8A397 1-508, looked up)
chain: QERPNIIVFLVDDMGLMDTSVPFIADESGQPVRHPLNDWYHTPNMERLAKQGICFSTFYAQSVSSPSRASIMTGQNATRHGVTNWINAESNNRNPFGPPQWNWKGLRKDMPTMPRVLQQAGYKTIHVGKAHFGCMGSEGENPLNIGFDVNIAGSGIGHPGSYYGEWGYGHIKGQKIRAVPDLEKYHGTDTFLSEALTIEANREITKAVEEKRPFYLNMAHYAVHSPFQADKRFLSRYTDPDKNEQARAFATLIEGMDKSLGDIMDQLEKLGIAENTLILFLGDNGGDAPLGDERGYGSSAPLRGKKGTEFEGGMRVPFIAAWAKPEKKSKVQKNLPIEVGSMQTQLGTIMDIYPTVLSVAGCEVPQNYVIDGFDLKKQLSGKVDKKRPESFLMHFPHAHRGSYFTTYRMGDWKLIYYYLPETPKQPKALLYNLKDDPEERNELSAAHPDQCREMIREMSARLEKEGALYPVDKQGNELKPFVYF
B2: BT3796^4S-Gal/GalNAc (enzyme)
chain: QTQKSAQTQRVDKRPNIILFMVDDMGWQDTSLPFWTQKTDYNKLYETPNMERLAKQGMMFTQAYASSISSPTRCSLITGTNAARHRVTNWTLQKNTKTDRKDKVLDVPDWNYNGVSQVPGTNNTFVGTSFVQLLKDSGYHTIHCGKAHFGAIDTPGEDPHHWGFEVNIAGHAAGGLASYLGEENYGHNKDGKPISLMAVPGLEKYWGTETFVTEALTLEAIKALNKAKKYNQPFYLYMSQYAIHVPLDKDKRFYDKYKKKGMTDHEAAYATLIEGMDKSLGDLMDWLEKSGEADNTIIIFMSDNGGLAAESYWRDGKLHTQNHPLNSGKGSTYEGGIREPMIVSWPGVVAPGSKCNDYLLIEDFYPTILEMAGIKKYKTVQPIDGISFMPLLKQTRNPSKGRSLFWNMPNNWGNDGPGINFNCAVRKGDWKLIYYYGTGKKELFNIPDDIGESNDLSAQHPDIVKRLSKELGTYLRKVDAQRPTVKATGKPCPWPDEIK

Target: the molecule itself
Assay: SEC-MALS

Protein	stoichiometry N
B1	2
B2	2
